# B1: HSPC 118: human protein interacting with FnbB, NCBI Protein GI 6841458 (protein)
# chain: MVGGGGVGGGLLENANPLIYQRSGERPVTAGEEDEQVPDSIDAREIFDLIRSINDPEHPLTLEELNVVEQVRVQVSDPESTVAVAFTPTIPHCSMATLIGLSIKVKLLRSLPQRFKMDVHITPGTHASEHAVNKQLADKERVAAALENTHLLEVVNQCLSARS
# B2: FLNA: human protein interacting with FnbB, NCBI Protein GI 15779184 (protein)
# chain: MPSGKVAQPTITDNKDGTVTVRYAPSEAGLHEMDIRYDNMHIPGSPLQFYVDYVNCGHVTAYGPGLTHGVVNKPATFTVNTKDAGEGGLSLAIEGPSKAEISCTDNQDGTCSVSYLPVLPGDYSILVKYNEQHVPGSPFTARVTGDDSMRMSHLKVGSAADIPINISETDLSLLTATVVPPSGREEPCLLKRLRNGHVGISFVPKETGEHLVHVKKNGQHVASSPIPVVISQSEIGDASRVRVSGQGLHEGHTFEPAEFIIDTRDAGYGGLSLSIEGPSKVDINTEDLEDGTCRVTYCPTEPGNYIINIKFADQHVPGSPFSVKVTGEGRVKESITRRRRAPSVANVGSHCDLSLKIPEISIQDMTAQVTSPSGKTHEAEIVEGENHTYCIRFVPAEMGTHTVSVKYKGQHVPGSPFQFTVGPLGEGGAHKVRAGGPGLERAEAGVPAEFSIWTREAGAGGLAIAVEGPSKAEISFEDRKDGSCGVAYVVQEPGDYEVSVKFNEEHIPDSPFVVPVASPSGDARRLTVSSLQESGLKVNQPASFAVSLNGAKGAIDAKVHSPSGALEECYVTEIDQDKYAVRFIPRENGVYLIDVKFNGTHIPGSPFKIRVGEPGHGGDPGLVSAYGAGLEGGVTGNPAEFVVNTSNAGAGALSVTIDGPSKVKMDCQECPEGYRVTYTPMAPGSYLISIKYGGPYHIGGSPFKAKVTGPRLVSNHSLHETSSVFVDSLTKATCAPQHGAPGPGPADASKVVAKGLGLSKAYVGQKSSFTVDCSKAGNNMLLVGVHGPRTPCEEILVKHVGSRLYSVSYLLKDKGEYTLVVKWGDEHIPGSPYRVVVP
# System: GST-tagged FnbB
# Assay: Pull-down with GST-tagged FnbB, proteins from rabbit reticulocyte translation system
# Type: binding, S. aureus
# Conditions: cell-free protein translation system; GST alone as negative control
# Text: Recombinant proteins were produced from the isolated plasmids from the PPI-partners in a rabbit reticulocyte-based translation system and additionally in E. coli cells. The produced recombinant proteins were used for pull-down and immunoprecipitation experiments.
molecule,measurement,value
B1,Co-purified with GST-tagged FnbB,could be co-purified
B2,Co-purified with GST-tagged FnbB,could be co-purified
